Assay results: patent US20250009896

Test system: T1, Free DX600 peptide
T1 sequence: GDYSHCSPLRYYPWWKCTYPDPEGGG

## Recombinant human angiotensin-converting enzyme 2 (ACE2) protein, carrier-free (R&D Systems)
  initial velocity of ACE2 cleavage of fluorogenic substrate: there is no appreciable difference in the initial velocity of ACE2 cleavage in the presence of Ligand in comparison to the free DX600 peptide alone
